Substitutions are numbered along the chain they refer to.
Experiments:
Test in all cases: EMSA; EMSA: PBS pH 7.4 (or KH2PO4/10 mM MgCl2 pH 6.0), 3.6 or 5 uM protein, 25 uM nt DNA, 37 C 15 min per strand, 0.8% agarose 1x TBE; cryo-EM: 20 mM KH2PO4 (Results: 10 mM), 10 mM MgCl2 pH 6.0, 37 C; native MS: 100 mM ammonium acetate pH 7, 37 C
Conditions in all cases: protein: recombinant, tags: N-terminal 6His vector tag (20 aa) retained, chain copies: 10
LiRecT V98W = target: T1, LiRecT V98W (Listeria innocua CLIP 11262, UniProt Q92FL9 1-271, V98W)
T1 sequence: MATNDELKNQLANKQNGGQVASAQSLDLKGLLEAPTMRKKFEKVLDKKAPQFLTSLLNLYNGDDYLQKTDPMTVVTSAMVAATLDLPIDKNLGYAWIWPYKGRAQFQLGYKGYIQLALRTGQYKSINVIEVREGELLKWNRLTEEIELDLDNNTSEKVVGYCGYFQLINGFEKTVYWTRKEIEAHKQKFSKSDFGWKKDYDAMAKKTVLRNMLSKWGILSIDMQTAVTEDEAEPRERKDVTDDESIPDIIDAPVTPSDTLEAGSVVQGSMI

LiRecT V98A/Y100A/Q107A = target: T2, LiRecT V98A/Y100A/Q107A (Listeria innocua CLIP 11262, UniProt Q92FL9 1-271, V98A;Y100A;Q107A)
T2 sequence: T1 sequence with W98A, Y100A, Q107A

LiRecT K180A = target: T3, LiRecT K180A (Listeria innocua CLIP 11262, UniProt Q92FL9 1-271, K180A)
T3 sequence: T1 sequence with W98V, K180A

LiRecT Q107A = target: T4, LiRecT Q107A (Listeria innocua CLIP 11262, UniProt Q92FL9 1-271, Q107A)
T4 sequence: T1 sequence with W98V, Q107A

LiRecT Y100A = target: T5, LiRecT Y100A (Listeria innocua CLIP 11262, UniProt Q92FL9 1-271, Y100A)
T5 sequence: T1 sequence with W98V, Y100A

[1] = label: 5'-Cy3;5'-Cy5, 49 bp, 1 nt 5' overhang at each end

Measured: binding result

CCATCCGCAAAAATCGAGCTATGCAGGGCGATTCTGCTCTAAGCCATCCG (ssDNA) [Cy5-50mer]
binds: LiRecT V98W; label: 5'-Cy5, single strand | LiRecT V98A/Y100A/Q107A; label: 5'-Cy5, single strand | LiRecT K180A; label: 5'-Cy5, single strand | LiRecT Q107A; label: 5'-Cy5, single strand | LiRecT Y100A; label: 5'-Cy5, single strand

B1: 50-mer duplex intermediate (sequential addition) (dsDNA)
DNA 1: GCGGATGGCTTAGAGCAGAATCGCCCTGCATAGCTCGATTTTTGCGGATG
DNA 2: CCATCCGCAAAAATCGAGCTATGCAGGGCGATTCTGCTCTAAGCCATCCG
binds: LiRecT V98W; [1] | LiRecT V98A/Y100A/Q107A; [1] | LiRecT K180A; [1] | LiRecT Q107A; [1] | LiRecT Y100A; [1]

GCGGATGGCTTAGAGCAGAATCGCCCTGCATAGCTCGATTTTTGCGGATG (ssDNA) [Cy3-50mer]
binds: LiRecT V98W; label: 5'-Cy3, single strand | LiRecT V98A/Y100A/Q107A; label: 5'-Cy3, single strand | LiRecT K180A; label: 5'-Cy3, single strand | LiRecT Q107A; label: 5'-Cy3, single strand | LiRecT Y100A; label: 5'-Cy3, single strand

From PMC9772228, “Structure of a RecT/Redβ family recombinase in complex with a duplex intermediate of DNA annealing”
